Experiment [1] deals with Protein A (UniProt P38507). Put plainly: LSPR (localized surface plasmon resonance) biosensor; Protein A immobilised by EDC/NHS on the gold-nanostructure sensor chip; IgG 0.45 mg/mL in running buffer, 1 mL injected at 1 mL/min, one injection (n = 1); running buffer PBS pH 7.4; room temperature; Langmuir 1:1 fit; apparent affinity.
Experiment [2] addresses Protein A (UniProt P38507). As to the kind of experiment: LSPR (localized surface plasmon resonance) biosensor; Protein A immobilised by EDC/NHS on the gold-nanostructure sensor chip; IgG 0.45 mg/mL in running buffer, 1 mL injected at 1 mL/min, one injection (n = 1); running buffer 10 mM citrate, 150 mM NaCl, pH 3.8; room temperature; Langmuir 1:1 fit; apparent affinity.
Experiment [3] concerns the target Protein A (UniProt P38507). As to the kind of experiment: LSPR (localized surface plasmon resonance) biosensor; Protein A immobilised by EDC/NHS on the gold-nanostructure sensor chip; IgG 0.45 mg/mL in running buffer, 1 mL injected at 1 mL/min, one injection (n = 1); running buffer 10 mM citrate, 150 mM NaCl, pH 4.0; room temperature; Langmuir 1:1 fit; apparent affinity.

Experiment [4] addresses Protein A (UniProt P38507). As to the kind of experiment: LSPR (localized surface plasmon resonance) biosensor; Protein A immobilised by EDC/NHS on the gold-nanostructure sensor chip; IgG 0.45 mg/mL in running buffer, 1 mL injected at 1 mL/min, one injection (n = 1); running buffer 10 mM citrate, 150 mM NaCl, pH 3.5; room temperature; Langmuir 1:1 fit; apparent affinity.
Experiment [5] addresses Human IgG1, monomer fraction (human). Put plainly: SEC-MALS; SEC-MALS-RI-UV on Superdex 200 Increase 10/300 GL, 1 mL/min, 100 uL injected, room temperature; 0.45 mg/mL total IgG; aggregate fraction of the IgG1 batch. Background: In gel filtration, larger molecules generally elute earlier.
The target in experiment [6] is Human IgG1 monoclonal antibody, monomer fraction (UniProt P01857). Put plainly: LSPR (localized surface plasmon resonance) fiber-optical nanoplasmonic biosensor, ArgusEye AB. The settings on record: room temperature under ambient conditions, pH 7.4: 140 mM sodium chloride, 2.7 mM potassium chloride, 10 mM phosphate, pH 4.0, 3.8 and 3.5: 150 mM NaCl with 10 mM citrate, pH 7.4: PBS (10 mM phosphate), pH 4.0, 3.8 and 3.5: 10 mM citrate (Methods and Results text). The Figure 3 caption state.

The target of experiment [7] is Human IgG1 monoclonal antibody, aggregate fraction (mainly dimers) (UniProt P01857). Described as above. The settings on record: room temperature under ambient conditions, pH 7.4: 140 mM sodium chloride, 2.7 mM potassium chloride, 10 mM phosphate, pH 4.0, 3.8 and 3.5: 150 mM NaCl with 10 mM citrate, pH 7.4: PBS (10 mM phosphate), pH 4.0, 3.8 and 3.5: 10 mM citrate (Methods and Results text). The Figure 3 caption state.

Broadly, the koff is a measure of how fast the partners let go of each other. For orientation: kon means a measure of how fast the partners come together. Broadly, the stoichiometry N is a count of units in the complex or per binding partner.

For “Human IgG1, aggregate fraction (antibody)”, the Kd in the experiment with Protein A [1] came to 1.2 nM; in the experiment with Protein A [2], 65 nM; with Protein A [3] it was 26 nM; in the experiment with Protein A [4], 350 nM. The koff with Protein A [1] was found to be 2.9e-05 s⁻¹; with Protein A [2], 0.0024 s⁻¹; with Protein A [3], 0.00092 s⁻¹; with Protein A [4] it was 0.0099 s⁻¹. The kon with Protein A [1] came out at 25000 M⁻¹ s⁻¹; with Protein A [2], 36000 M⁻¹ s⁻¹; with Protein A [3], 36000 M⁻¹ s⁻¹; in the experiment with Protein A [4] it was 28000 M⁻¹ s⁻¹.

Turning to Human IgG1, monomer fraction (antibody), the Kd with Protein A [1] stood at 1.3 nM; with Protein A [2] it was 330 nM; in the experiment with Protein A [3], 130 nM; with Protein A [4], 660 nM. Moreover, the koff in the experiment with Protein A [1] came out at 2.9e-05 s⁻¹; in the experiment with Protein A [2], 0.01 s⁻¹; with Protein A [3], 0.004 s⁻¹; with Protein A [4], 0.011 s⁻¹. Further, the kon was 22000 M⁻¹ s⁻¹ with Protein A [1], 30000 M⁻¹ s⁻¹ with Protein A [2], 31000 M⁻¹ s⁻¹ with Protein A [3] and 17000 M⁻¹ s⁻¹ with Protein A [4]. Also, the stoichiometry N in experiment [5] came out at 2.

As to “Protein A (staphylococcal protein A, SpA)”, the koff worked out at 0.011 s⁻¹ in experiment [6] (pH 3.5); 0.01 s⁻¹ in experiment [6] (pH 3.8); 0.004 s⁻¹ in experiment [6] (pH 4.0); 2.9e-05 s⁻¹ in experiment [6] (pH 7.4); 0.0099 s⁻¹ in experiment [7] (pH 3.5); 0.0024 s⁻¹ in experiment [7] (pH 3.8). Moreover, the koff in experiment [7] (pH 4.0) is 0.00092 s⁻¹; in experiment [7] (pH 7.4), 2.9e-05 s⁻¹. Also, the kon in experiment [6] (pH 3.5) stood at 17000 M⁻¹ s⁻¹; in experiment [6] (pH 3.8), 30000 M⁻¹ s⁻¹; in experiment [6] (pH 4.0) it was 31000 M⁻¹ s⁻¹; in experiment [6] (pH 7.4), 22000 M⁻¹ s⁻¹; in experiment [7] (pH 3.5), 28000 M⁻¹ s⁻¹; in experiment [7] (pH 3.8) it was 36000 M⁻¹ s⁻¹. In addition, the kon in experiment [7] (pH 4.0) was found to be 36000 M⁻¹ s⁻¹; in experiment [7] (pH 7.4), 25000 M⁻¹ s⁻¹.

These data come from publication PMC9670026.
